Experimental findings from PMC8307404, “Crystal Structure-Guided Design of Bisubstrate Inhibitors and Photoluminescent Probes for Protein Kinases of the PIM Family” (Molecules, 2021) are described below.

Square brackets hold non-standard residues; d marks the D form. Peptide text beside a SMILES is read from it. * marks the point of attachment. X3 = O=C(CCCCCNCc1nc2c(sc3cc(Br)cnc32)c(=O)[nH]1)*

Holding throughout (assay): Kinase profiling (radiometric filter-binding)
Holding throughout (assay type): biochemical

One series concerns the target T1, MKK6 (Homo sapiens, UniProt P52564).
T1 sequence (P52564 1-334): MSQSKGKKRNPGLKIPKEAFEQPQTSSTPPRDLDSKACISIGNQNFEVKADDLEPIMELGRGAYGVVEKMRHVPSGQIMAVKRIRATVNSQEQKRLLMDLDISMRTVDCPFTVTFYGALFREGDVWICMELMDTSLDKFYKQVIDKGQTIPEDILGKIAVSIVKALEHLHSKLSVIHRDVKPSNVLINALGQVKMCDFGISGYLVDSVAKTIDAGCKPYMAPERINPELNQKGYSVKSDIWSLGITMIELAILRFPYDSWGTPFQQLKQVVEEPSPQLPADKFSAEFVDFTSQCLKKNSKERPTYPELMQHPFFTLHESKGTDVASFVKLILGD
To be noted: MKK6, 1 µM inhibitor; read-out: Residual activity, %. An outline of the steps: (§1)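 Human kinase, ATP (≤ KM) and test compound (1 µM final) were combined; phosphorylation was quantified by radiometric filter binding. Activity left was normalised to the control reaction without compound.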

In the next series the target is T2, VEG-FR (Homo sapiens, UniProt P17948).
T2 sequence (P17948 784-1338 limits assumed): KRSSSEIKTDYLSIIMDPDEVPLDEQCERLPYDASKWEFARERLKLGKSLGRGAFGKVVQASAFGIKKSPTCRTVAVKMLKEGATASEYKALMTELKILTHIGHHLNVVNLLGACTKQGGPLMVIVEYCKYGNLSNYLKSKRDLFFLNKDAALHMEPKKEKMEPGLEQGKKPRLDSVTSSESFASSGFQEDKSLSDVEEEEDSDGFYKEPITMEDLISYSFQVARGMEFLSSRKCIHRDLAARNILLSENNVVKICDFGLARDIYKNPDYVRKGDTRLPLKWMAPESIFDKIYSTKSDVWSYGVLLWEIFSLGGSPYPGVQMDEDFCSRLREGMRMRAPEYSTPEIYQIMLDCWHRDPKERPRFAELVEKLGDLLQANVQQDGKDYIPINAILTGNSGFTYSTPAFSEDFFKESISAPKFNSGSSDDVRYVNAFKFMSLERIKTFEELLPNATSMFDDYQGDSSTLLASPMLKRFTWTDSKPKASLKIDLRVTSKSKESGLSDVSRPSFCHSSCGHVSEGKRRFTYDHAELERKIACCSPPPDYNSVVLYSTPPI
Conditions: 1 µM inhibitor, read-out: Residual activity, %. An outline of the steps: as §1

The next series addresses PDGFRA (Homo sapiens, UniProt P16234). To be noted: 1 µM inhibitor, read-out: Residual activity, %. An outline of the steps: as §1
A further series deals with IRAK1 (Homo sapiens, UniProt P51617). Conditions: IRAK1, 1 µM inhibitor; read-out: Residual activity, %. An outline of the steps: as §1
IRAK1, sequence (P51617 whole entry): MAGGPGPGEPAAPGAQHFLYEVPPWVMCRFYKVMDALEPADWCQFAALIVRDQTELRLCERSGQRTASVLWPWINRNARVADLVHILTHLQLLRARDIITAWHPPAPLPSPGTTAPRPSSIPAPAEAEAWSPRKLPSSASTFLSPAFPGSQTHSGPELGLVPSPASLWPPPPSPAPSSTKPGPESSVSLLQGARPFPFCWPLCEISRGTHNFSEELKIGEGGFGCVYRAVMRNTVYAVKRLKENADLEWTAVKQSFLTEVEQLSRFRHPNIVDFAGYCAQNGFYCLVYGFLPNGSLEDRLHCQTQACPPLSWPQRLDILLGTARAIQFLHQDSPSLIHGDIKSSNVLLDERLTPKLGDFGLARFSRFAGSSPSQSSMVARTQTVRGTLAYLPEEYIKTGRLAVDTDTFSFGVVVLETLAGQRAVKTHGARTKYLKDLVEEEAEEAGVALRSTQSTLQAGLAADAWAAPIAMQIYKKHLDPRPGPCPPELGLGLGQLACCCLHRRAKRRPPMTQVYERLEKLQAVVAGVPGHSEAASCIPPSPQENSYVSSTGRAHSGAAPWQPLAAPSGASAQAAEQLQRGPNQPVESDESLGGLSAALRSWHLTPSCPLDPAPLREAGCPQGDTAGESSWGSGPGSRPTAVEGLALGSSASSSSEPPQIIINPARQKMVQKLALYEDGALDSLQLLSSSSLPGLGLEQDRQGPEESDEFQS
For a further series, the target named is T3, EPH-B2 (Homo sapiens, UniProt P29323).
T3 sequence (P29323 19-1055): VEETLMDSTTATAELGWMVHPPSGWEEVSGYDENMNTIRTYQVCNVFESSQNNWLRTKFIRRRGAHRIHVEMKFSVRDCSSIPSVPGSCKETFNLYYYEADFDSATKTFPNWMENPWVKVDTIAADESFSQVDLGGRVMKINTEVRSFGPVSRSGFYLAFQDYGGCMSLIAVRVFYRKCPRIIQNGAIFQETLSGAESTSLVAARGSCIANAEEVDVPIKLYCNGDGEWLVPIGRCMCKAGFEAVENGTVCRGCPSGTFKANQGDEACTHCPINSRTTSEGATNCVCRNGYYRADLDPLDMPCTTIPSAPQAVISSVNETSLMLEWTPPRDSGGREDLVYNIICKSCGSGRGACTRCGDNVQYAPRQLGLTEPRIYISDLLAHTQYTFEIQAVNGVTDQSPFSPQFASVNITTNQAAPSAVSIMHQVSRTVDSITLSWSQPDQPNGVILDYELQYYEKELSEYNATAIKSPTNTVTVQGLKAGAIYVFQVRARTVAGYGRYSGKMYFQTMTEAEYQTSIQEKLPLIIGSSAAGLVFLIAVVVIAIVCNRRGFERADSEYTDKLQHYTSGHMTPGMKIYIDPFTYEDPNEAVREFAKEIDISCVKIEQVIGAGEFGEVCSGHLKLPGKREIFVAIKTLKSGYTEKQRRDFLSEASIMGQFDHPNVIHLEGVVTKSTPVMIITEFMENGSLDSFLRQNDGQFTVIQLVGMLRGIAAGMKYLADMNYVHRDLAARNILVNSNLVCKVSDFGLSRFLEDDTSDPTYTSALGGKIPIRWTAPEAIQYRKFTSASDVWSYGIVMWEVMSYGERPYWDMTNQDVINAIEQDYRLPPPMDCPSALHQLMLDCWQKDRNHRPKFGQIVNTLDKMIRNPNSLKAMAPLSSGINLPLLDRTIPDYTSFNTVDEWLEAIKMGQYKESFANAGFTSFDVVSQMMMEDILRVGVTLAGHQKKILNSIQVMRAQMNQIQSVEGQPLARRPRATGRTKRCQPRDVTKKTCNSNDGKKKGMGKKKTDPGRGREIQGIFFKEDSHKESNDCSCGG
Conditions: EPH-B2, 1 µM inhibitor; read-out: Residual activity, %. An outline of the steps: as §1

In the next series the target is MAP4K5 (Homo sapiens, UniProt Q9Y4K4). To be noted: MAP4K5, 1 µM inhibitor; read-out: Residual activity, %. An outline of the steps:
as §1

The target of a further series is ABL (Homo sapiens, UniProt P00519). Conditions: 1 µM inhibitor, read-out: Residual activity, %. An outline of the steps:
as §1

Another series addresses MELK (Homo sapiens, UniProt Q14680). Conditions: 1 µM inhibitor, read-out: Residual activity, %. An outline of the steps: as §1
For a further series, the target named is TTBK2 (Homo sapiens, UniProt Q6IQ55). Conditions: TTBK2, 1 µM inhibitor; read-out: Residual activity, %. An outline of the steps:
as §1

The next series concerns the target SYK (Homo sapiens, UniProt P43405). To be noted: 1 µM inhibitor, read-out: Residual activity, %. An outline of the steps: as §1
Another series deals with HIPK2 (Homo sapiens, UniProt Q9H2X6). To be noted: HIPK2, 1 µM inhibitor; read-out: Residual activity, %. An outline of the steps: as §1
In another series the target is PAK2 (Homo sapiens, UniProt Q13177). Conditions: PAK2, 1 µM inhibitor; read-out: Residual activity, %. An outline of the steps: as §1
A further series deals with Lck (Homo sapiens, UniProt P06239). Conditions: 1 µM inhibitor, read-out: Residual activity, %. An outline of the steps:
as §1

ABL, sequence (P00519 whole entry): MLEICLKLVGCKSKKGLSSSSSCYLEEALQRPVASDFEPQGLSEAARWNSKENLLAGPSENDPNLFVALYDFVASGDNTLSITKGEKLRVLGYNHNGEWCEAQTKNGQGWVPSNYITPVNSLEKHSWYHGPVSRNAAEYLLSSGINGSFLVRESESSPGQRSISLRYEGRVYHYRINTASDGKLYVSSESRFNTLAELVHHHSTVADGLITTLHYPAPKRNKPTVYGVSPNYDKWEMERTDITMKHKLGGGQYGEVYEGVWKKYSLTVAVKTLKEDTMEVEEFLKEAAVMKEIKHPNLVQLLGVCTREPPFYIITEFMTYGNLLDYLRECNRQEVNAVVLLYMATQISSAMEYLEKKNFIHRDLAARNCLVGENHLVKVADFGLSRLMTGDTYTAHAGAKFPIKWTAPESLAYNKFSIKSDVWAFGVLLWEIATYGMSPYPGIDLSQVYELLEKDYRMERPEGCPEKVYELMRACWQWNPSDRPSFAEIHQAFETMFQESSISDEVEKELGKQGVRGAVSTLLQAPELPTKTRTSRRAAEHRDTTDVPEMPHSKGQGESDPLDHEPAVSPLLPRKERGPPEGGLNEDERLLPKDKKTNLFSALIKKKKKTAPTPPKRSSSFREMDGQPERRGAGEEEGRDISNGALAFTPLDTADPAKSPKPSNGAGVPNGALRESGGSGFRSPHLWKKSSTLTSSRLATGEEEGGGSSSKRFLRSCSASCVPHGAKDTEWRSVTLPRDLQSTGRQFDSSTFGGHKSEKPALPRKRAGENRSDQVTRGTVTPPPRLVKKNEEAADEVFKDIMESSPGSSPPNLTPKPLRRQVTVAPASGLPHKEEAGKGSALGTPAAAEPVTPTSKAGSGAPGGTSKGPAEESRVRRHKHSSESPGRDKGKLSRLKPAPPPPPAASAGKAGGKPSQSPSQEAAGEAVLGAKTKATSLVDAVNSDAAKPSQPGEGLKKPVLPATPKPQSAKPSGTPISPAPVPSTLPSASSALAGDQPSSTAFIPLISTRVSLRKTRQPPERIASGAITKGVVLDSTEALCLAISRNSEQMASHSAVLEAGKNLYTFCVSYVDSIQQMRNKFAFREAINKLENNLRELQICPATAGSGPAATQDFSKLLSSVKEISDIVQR
Lck, sequence (P06239 whole entry): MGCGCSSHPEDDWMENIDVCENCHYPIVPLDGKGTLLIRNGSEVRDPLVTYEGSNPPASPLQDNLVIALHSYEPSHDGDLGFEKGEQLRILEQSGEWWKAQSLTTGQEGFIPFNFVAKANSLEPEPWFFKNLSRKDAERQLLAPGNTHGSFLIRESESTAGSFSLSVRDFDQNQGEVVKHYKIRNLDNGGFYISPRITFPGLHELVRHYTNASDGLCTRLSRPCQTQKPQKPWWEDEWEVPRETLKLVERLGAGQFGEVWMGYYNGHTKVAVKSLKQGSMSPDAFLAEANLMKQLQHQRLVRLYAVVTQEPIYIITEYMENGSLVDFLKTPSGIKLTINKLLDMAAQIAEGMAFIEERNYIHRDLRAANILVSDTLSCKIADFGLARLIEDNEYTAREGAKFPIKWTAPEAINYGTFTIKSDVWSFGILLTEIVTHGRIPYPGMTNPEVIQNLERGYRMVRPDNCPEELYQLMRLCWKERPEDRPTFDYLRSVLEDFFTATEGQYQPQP
TTBK2, sequence (Q6IQ55 whole entry): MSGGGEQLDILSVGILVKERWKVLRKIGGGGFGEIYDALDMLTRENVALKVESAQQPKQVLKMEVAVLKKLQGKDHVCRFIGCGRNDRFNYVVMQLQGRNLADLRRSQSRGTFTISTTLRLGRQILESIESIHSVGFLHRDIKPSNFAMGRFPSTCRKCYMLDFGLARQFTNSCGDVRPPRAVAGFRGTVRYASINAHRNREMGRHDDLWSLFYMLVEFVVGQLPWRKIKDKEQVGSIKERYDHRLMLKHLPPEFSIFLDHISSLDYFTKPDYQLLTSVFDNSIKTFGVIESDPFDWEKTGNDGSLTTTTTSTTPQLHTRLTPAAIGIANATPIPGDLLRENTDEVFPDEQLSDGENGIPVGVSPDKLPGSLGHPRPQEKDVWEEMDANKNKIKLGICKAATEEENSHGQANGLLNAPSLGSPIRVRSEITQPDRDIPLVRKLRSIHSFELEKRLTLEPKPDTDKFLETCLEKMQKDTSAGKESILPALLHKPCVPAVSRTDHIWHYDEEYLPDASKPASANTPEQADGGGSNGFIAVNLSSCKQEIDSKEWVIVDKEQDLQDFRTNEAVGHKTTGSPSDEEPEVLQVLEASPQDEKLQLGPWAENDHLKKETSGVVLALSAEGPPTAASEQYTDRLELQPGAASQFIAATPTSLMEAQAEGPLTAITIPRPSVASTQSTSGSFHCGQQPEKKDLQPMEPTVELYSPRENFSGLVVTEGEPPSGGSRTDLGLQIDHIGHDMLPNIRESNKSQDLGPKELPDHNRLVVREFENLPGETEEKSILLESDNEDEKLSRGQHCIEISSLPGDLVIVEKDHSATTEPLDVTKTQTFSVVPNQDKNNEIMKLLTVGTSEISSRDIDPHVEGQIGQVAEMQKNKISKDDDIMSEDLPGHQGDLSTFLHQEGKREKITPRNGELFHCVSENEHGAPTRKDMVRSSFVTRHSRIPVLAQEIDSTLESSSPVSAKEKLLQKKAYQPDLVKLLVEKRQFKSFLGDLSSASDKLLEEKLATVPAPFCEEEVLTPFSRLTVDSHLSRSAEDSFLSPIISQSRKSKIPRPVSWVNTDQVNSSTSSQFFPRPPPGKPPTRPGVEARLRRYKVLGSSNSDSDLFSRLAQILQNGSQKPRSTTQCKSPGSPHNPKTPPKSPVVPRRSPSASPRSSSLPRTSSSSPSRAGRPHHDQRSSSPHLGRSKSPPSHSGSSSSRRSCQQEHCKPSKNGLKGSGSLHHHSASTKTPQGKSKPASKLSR
PDGFRA, sequence (P16234 24-1089): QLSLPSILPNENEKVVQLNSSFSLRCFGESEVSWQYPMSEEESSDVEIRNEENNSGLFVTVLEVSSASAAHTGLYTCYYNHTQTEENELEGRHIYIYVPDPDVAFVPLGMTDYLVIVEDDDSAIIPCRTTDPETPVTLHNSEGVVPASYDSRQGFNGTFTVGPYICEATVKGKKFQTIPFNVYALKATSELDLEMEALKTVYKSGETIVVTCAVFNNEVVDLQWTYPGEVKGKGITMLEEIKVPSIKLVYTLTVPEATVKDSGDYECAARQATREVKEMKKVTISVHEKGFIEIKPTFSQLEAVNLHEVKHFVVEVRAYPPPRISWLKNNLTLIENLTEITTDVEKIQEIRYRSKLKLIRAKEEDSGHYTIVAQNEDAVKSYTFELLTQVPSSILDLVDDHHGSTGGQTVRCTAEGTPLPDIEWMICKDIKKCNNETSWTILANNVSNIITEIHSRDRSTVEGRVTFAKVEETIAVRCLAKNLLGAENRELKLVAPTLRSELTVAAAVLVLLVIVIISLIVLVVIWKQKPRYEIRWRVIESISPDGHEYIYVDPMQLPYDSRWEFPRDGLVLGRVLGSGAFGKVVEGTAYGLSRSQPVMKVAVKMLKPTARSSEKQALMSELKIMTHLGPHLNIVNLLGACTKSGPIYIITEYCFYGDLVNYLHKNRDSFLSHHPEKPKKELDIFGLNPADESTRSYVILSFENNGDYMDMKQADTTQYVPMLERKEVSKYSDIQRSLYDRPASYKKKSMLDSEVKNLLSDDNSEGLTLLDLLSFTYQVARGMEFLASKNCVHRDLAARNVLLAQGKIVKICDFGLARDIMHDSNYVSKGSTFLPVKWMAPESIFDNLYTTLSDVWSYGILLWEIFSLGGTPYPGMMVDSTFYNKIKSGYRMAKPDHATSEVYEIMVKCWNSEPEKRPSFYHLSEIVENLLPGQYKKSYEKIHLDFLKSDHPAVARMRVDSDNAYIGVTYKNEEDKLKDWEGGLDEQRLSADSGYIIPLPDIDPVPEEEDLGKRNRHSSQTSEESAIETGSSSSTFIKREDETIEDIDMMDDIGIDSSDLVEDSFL

Turning to `N=C(N)NCCC[C@@H](NC(=O)CCCCCNC(=O)Cn1cnc2c(I)c(I)c(I)c(I)c21)C(=O)N[C@H](CCCNC(=N)N)C(=O)N[C@H](CCCNC(=N)N)C(=O)N[C@H](CCCNC(=N)N)C(=O)N[C@H](CCCNC(=N)N)C(=O)N[C@H](CCCNC(=N)N)C(=O)N[C@H](CCCCN)C(N)=O` [ARC-3125, TIBI-CH2-C(=O)-Ahx-(D-Arg)6-D-Lys-NH2], the remaining activity at 1 µM was determined as 110 ± 10% in the series with MKK6; 95 ± 41% with VEG-FR; 97% with PDGFRA; 16 ± 3% in the series with IRAK1; 102 ± 8% in the series with EPH-B2; 102 ± 3% in the series with MAP4K5. The remaining activity at 1 µM in the series with ABL is 106%; with MELK it was 34 ± 4%; with TTBK2, 101 ± 24%; with SYK, 94 ± 10%; with HIPK2, 16 ± 2%; with PAK2, 29 ± 4%. In the series with Lck, the remaining activity at 1 µM turned out to be 226 ± 7%.
For `N=C(N)NCCC[C@@H](NC(=O)CCCCCNCc1nc2c(sc3cc(Br)cnc32)c(=O)[nH]1)C(=O)N[C@H](CCCNC(=N)N)C(=O)N[C@H](CCCNC(=N)N)C(=O)N[C@H](CCCNC(=N)N)C(=O)N[C@H](CCCNC(=N)N)C(=O)N[C@H](CCCNC(=N)N)C(=O)N[C@H](CCCCN)C(N)=O` [ARC-3126, BPTP-Ahx-(D-Arg)6-D-Lys-NH2] (X3-[dR][dR][dR][dR][dR][dR][dK]-NH2), the remaining activity at 1 µM with MKK6 was found to be 105 ± 1%; with VEG-FR, 85%; in the series with PDGFRA, 116 ± 3%; in the series with IRAK1, 120 ± 2%; with EPH-B2, 107 ± 4%; with MAP4K5 it was 50 ± 12%. Besides, the remaining activity at 1 µM with ABL stood at 116 ± 5%; in the series with MELK, 79 ± 1%; with TTBK2 it was 77 ± 2%; with SYK, 75 ± 20%; with HIPK2 it was 75 ± 15%; in the series with PAK2 it was 72 ± 5%. The remaining activity at 1 µM with Lck amounted to 132 ± 28%.
In the case of `N=C(N)NCCC[C@@H](NC(=O)CNC(=O)[C@@H](CCCNC(=N)N)NC(=O)[C@@H](CCCNC(=N)N)NC(=O)CCCCCCCNCc1nc2c(sc3cc(Br)cnc32)c(=O)[nH]1)C(=O)N[C@H](CCCCN)C(N)=O` [Compound 1, BPTP-Aoc-(D-Arg)2-Gly-D-Arg-D-Lys-NH2], the remaining activity at 1 µM amounted to 122 ± 2% in the series with MKK6; 110 ± 9% with VEG-FR; 115 ± 2% with PDGFRA; 131 ± 17% with IRAK1; 95 ± 16% with EPH-B2; 107 ± 12% in the series with MAP4K5. Also, the remaining activity at 1 µM with ABL is 94 ± 8%; in the series with MELK, 86 ± 5%; with TTBK2, 109 ± 6%; with SYK, 133 ± 15%; with HIPK2 it was 103 ± 13%; with PAK2, 99 ± 9%. For the same compound, in the series with Lck, the remaining activity at 1 µM came to 94 ± 18%.
For `N=C(N)NCCC[C@@H](NC(=O)CNC(=O)[C@@H](CCCNC(=N)N)NC(=O)[C@@H](CCCNC(=N)N)NC(=O)CCCCCCCNCc1nc2c(sc3ccc(Br)cc32)c(=O)[nH]1)C(=O)N[C@H](CCCCN)C(N)=O` [Compound 2, BBTP-Aoc-(D-Arg)2-Gly-D-Arg-D-Lys-NH2], the remaining activity at 1 µM with MKK6 amounted to 121 ± 3%; in the series with VEG-FR it was 96 ± 3%; in the series with PDGFRA, 101 ± 16%; with IRAK1, 134 ± 21%; with EPH-B2, 100 ± 5%; with MAP4K5, 112 ± 10%. Besides, the remaining activity at 1 µM with ABL turned out to be 89 ± 5%; with MELK, 75 ± 9%; with TTBK2 it was 125 ± 12%; in the series with SYK, 123 ± 3%; with HIPK2 it was 48 ± 2%; with PAK2, 100 ± 10%. The remaining activity at 1 µM in the series with Lck was found to be 103 ± 18%.
Take `N=C(N)NCCC[C@@H](NC(=O)CNC(=O)[C@@H](CCCNC(=N)N)NC(=O)[C@@H](CCCNC(=N)N)NC(=O)Cn1cc(CNCc2nc3c(sc4ccc(Br)cc43)c(=O)[nH]2)nn1)C(=O)N[C@H](CCCCN)C(N)=O` [Compound 3, BBTP-Amt-(D-Arg)2-Gly-D-Arg-D-Lys-NH2]: the remaining activity at 1 µM came out at 126 ± 10% in the series with MKK6; 90 ± 5% with VEG-FR; 108 ± 4% with PDGFRA; 113 ± 11% in the series with IRAK1; 96 ± 14% with EPH-B2; 98 ± 3% with MAP4K5. Further, the remaining activity at 1 µM with ABL is 91 ± 12%; with MELK it was 73 ± 11%; in the series with TTBK2, 105 ± 15%; in the series with SYK, 114 ± 2%; with HIPK2, 50 ± 7%; in the series with PAK2, 91 ± 4%. Further, the remaining activity at 1 µM in the series with Lck was 78 ± 6%.
